Test results from patent publication US20230257435A1, “Wound Healing Composition and Uses Thereof” (AGENCY FOR SCIENCE, TECHNOLOGY AND RESEARCH, priority 2020, published 2023).

How the values were obtained:
[1] = tested on: keratinocytes; assay: BrdU incorporation after wound scratch (leader/follower cells); type: cell-based; settings: Agrin knockdown; 10 μg/ml sAgrin 18 h; 4 h post-scratch
Procedure: FIG. 6 Agrin impacts keratinocyte proliferation following wound injury. (a) Control, Agrin depleted indicated keratinocytes and those rescued with 10 μg/ml sAgrin for 18 h were labelled with 20 μM BrdU for 12 hours, before proceeding with wound-scratch assays. The cells were fixed at 4 hours post-scratching and stained with an Anti-BrdU and K17 antibodies. Nuclei were counterstained with DAPI. Representative confocal images at the wound edge (leader) and at-least 200 μm away from the wound margin (followers) are shown. The relative percentage of proliferating cells are shown for each condition graphically (n=5-6 images analyzed for each conditions from three replicates, Students ‘t’ test, **p=0.006, *p-0.003, p=0.005, ***p=0.0001, respectively). Scale bar: 10 μm. (b-c) Schematic showing the states of proliferation at the migrating wound margins. Immunohistological sections stained for Ki67 in control and Agrin depleted wound edges and beds at day 7 post-wounding. Filled arrows denote the base of epidermis (Ep), while arrows represent the wound margin. Asterisk (*) denotes the loss of Ki67 proliferation at the wound margins. Scale bar: 100 μm. The percentage of proliferating cells was quantified using Image J (n=4 sections analyzed from two individual mice, Students ‘t’ tests, **p=0.001).

[2] = tested on: mouse skin wounds; assay: Cytokine and chemokine expression in mouse skin wounds; type: in vivo
Procedure: The photographs of a representative wound for each condition is shown above. The respective p values for the selected group of significant genes are represent in tabular form (n=3 mice per group, Multiple t tests). (b) Western blot analysis in the mouse skin treated as in (a) showing the protein expression of selected proteins. GAPDH served as a loading control (n=2 independent mice wounds were analyzed for each group).
Indicated cells post-manipulation were washed twice with cold Phosphate buffered saline (PBS) and lysed with cold 1% NP-40 lysis buffer supplemented with 1× protease inhibitor cocktail (Roche Applied Biosciences) for 15 mins at 4° C. […] The density of the various bands was quantified using the Image-J software.
Total RNA was extracted from indicated cells using Qiagen RNeasy mini kit as per the manufacturer's recommended protocol. […] For RNA-sequencing, the RNA quality was analyzed on a Bioanalyzer instrument (Agilent) using the Agilent RNA 6000 Pico Kit. […] Purified libraries were quantified by qPCR (KAPA Library Quantification Kit for Illumina, Roche). […] The condition of sequencing was represented by a single read high output run at 75 bp read length. Raw reads from fastq files were aligned to the hg38 genome using STAR 2.6.1d. […] The relative number of reads mapping to each gene was quantified with htseqcount on features from the gtf file gencode.v29.annotation.gtf. […]

[3] = tested on: MMP12; assay: MMP12 levels in HaCaT cells (Western blot / immunostaining); type: cell-based, human
Procedure: Tissue culture plates were coated with Col-T-gel (Fischer Scientific) of stiffness ranging from 0.8 KPa (soft) to 30 KPa (stiff) as per manufacturer recommendations and allowed to solidify for 40 min at 37° C. inside tissue culture incubators. Some experiments were performed with cells seeded on the poly-hydrogel plates of defined stiffness: 0.2 kPa and 16 kPa soft and hard polyhydrogels, respectively (CytoSoft, Advanced Biomatrix, Inc.,). The determination of stiffness of silicone substrates were done by the manufacturer as per previously published protocols. For certain experiments, indicated amounts of sAgrin was incorporated into the 0.8 KPa collagen gels before gelation process. Upon gelation, trypsinized cells or excised mouse skin explants were plated onto the gels of different stiffness either alone or containing sAgrin. The cells/tissues were incubated under standard culture condition with 500 μl recommended culture medium for the indicated days. The crossbow shaped micropatterns with fibronectin coated islands were generated by microlithography on a 19.5×19.5 mm coverslide from Cytoo, Inc., France. The micropatterns had surface areas of 800μ^2 or 1600μ^2, respectively. Fifty thousand cells after initial siRNA treatment was placed on the micropatterns for 4-6 h before processing them for immunofluorescence. For some experiments, 10 μg/ml sAgrin was added on the slides 18 h prior to the addition of cells.
Indicated cells post-manipulation were washed twice with cold Phosphate buffered saline (PBS) and lysed with cold 1% NP-40 lysis buffer supplemented with 1× protease inhibitor cocktail (Roche Applied Biosciences) for 15 mins at 4° C. The cell lysate was centrifuged at 13,000 rpm for 15 min. This was followed by protein estimation using Bradford reagent. Subsequently, […] of total protein was mixed with an equal volume of 2× Laemmli sample buffer and heated at 95° C. for 5 mins. This was followed by resolution with SDS-PAGE gel. The resolved proteins were transferred onto nitrocellulose membrane and blocked in 5% skimmed milk reconstituted in 1×PBS containing 0.1% Tween-20, and probed overnight with the respective primary antibody. The membrane was then washed with 1×PBS supplemented with 0.1% Tween-20: three times at 15 min intervals. This was followed by 1 h incubation in conjugated horseradish peroxidase HRP secondary antibody (Santa Cruz Biotechnology). […] The density of the various bands was quantified using the Image-J software.
Cells were cultured on eight-well chamber slides or coverslips over-night. […] The images were processed and analyzed by Zen blue software. […]

B1: sAgrin: C-terminus recombinant Agrin fragment containing 8 amino acid 'Z8' insert and LG3 domain (SEQ ID NO: 7), His-tagged, expressed in E. coli (protein)
chain: DTLAFDGRTFVEYLNAVTESELANEIPVEKALQSNHFELSLRTEATQGLVLWSGKATERADYVALAIVDGHLQLSYNLGSQPVVLRSTVPVNTNRWLRVVAHREQREGSLQVGNEAPVTGSSPLGATQLDTDGALWLGGLPELPVGPALPKAYGTGFVGCLRDVVVGRHPLHLLEDAVTKPELRPCPTP
modifications: His tag
[1]
  proliferation of follower cells away from the wound margin: rescued
[2]; vs BSA and Collagen
  protein expression of TGF-β1, VEGF-A and MCP-1: augmented protein expression(s) of TGF-β1, VEGF-A and MCP-1
[2]; within 48 h post-injury, vs BSA or Collagen
  mRNA of TGF-β1, VEGF-A, MCP-1, MIP-1β and MIP-2: significantly induced
[3]; 10 μg/ml sAgrin
  MMP12 levels on soft matrix, exposure time series: increased MMP12 levels
[3]; 0.8 kPa, increasing sAgrin, 18 h
  MMP12 protein levels on soft substrates, concentration series: strongly stabilized MMP12 protein levels in a dose-dependent fashion
[3]; 6 h post-wound scratch, sAgrin 10 μg/ml
  MMP12 and Agrin at the leading migrating front: further heightened
[3]; increasing sAgrin, 18 h, dose-dependent
  MMP12 levels in Agrin knockdown cells on stiff ECM: restored their MMP12 levels
